Values belong to the binder of their own block, whether it stands above or below them.
Tests used:
[1] = molecular target: T1, APC2811-AA; test: two-hybrid library CCmax; settings: mean of both orientations;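 also: natural log of median RNA to DNA barcode read ratio; higher means stronger binding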
T1 chain: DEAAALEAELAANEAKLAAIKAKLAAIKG

[2] = molecular target: T2, APC9291-AA; test: two-hybrid library CCmax; settings: mean of both orientations;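 also: natural log of median RNA to DNA barcode read ratio; higher means stronger binding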
T2 chain: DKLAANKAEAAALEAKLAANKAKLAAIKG

[3] = molecular target: T3, APC9806-AA; test: two-hybrid library CCmax; settings: mean of both orientations;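 also: natural log of median RNA to DNA barcode read ratio; higher means stronger binding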
T3 chain: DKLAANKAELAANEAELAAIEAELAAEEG

[4] = molecular target: T4, APC3323-AA; test: two-hybrid library CCmax; settings: mean of both orientations;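 also: natural log of median RNA to DNA barcode read ratio; higher means stronger binding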
T4 chain: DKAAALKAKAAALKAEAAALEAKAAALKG

[5] = molecular target: T5, APC2543-AA; test: two-hybrid library CCmax; settings: mean of both orientations;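 also: natural log of median RNA to DNA barcode read ratio; higher means stronger binding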
T5 chain: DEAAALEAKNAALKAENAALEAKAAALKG

[6] = molecular target: T6, APC6088-AA; test: two-hybrid library CCmax; settings: mean of both orientations;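 also: natural log of median RNA to DNA barcode read ratio; higher means stronger binding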
T6 chain: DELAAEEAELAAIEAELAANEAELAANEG

[7] = molecular target: T7, APC542-AA; test: two-hybrid library CCmax
T7 chain: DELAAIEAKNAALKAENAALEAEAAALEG

[8] = molecular target: T8, APC5531-AA; test: two-hybrid library CCmax
T8 chain: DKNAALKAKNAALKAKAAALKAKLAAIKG

[9] = molecular target: T9, APC5009-AA; test: two-hybrid library CCmax; settings: mean of both orientations
T9 chain: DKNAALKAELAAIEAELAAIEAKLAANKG

[10] = molecular target: T10, APC2257-AA; test: two-hybrid library CCmax; settings: mean of both orientations
T10 chain: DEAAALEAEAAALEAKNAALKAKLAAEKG

[11] = molecular target: T11, APC7524-AA; test: two-hybrid library CCmax; settings: mean of both orientations
T11 chain: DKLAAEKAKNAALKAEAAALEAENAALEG

[12] = molecular target: T12, APC9141-AA; test: two-hybrid library CCmax; settings: mean of both orientations
T12 chain: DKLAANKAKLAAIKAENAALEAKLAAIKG

[13] = molecular target: T13, APC9182-AA; test: two-hybrid library CCmax; settings: mean of both orientations
T13 chain: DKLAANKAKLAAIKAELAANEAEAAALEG

[14] = molecular target: T14, APC4336-AA; test: two-hybrid library CCmax; settings: mean of both orientations
T14 chain: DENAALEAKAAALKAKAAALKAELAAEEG

[15] = molecular target: T15, APC2375-AA; test: two-hybrid library CCmax; settings: mean of both orientations
T15 chain: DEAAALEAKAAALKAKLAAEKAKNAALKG

[16] = molecular target: T16, APC8401-AA; test: two-hybrid library CCmax; settings: mean of both orientations
T16 chain: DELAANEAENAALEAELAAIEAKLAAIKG

[17] = molecular target: T17, APC3881-AA; test: two-hybrid library CCmax; settings: mean of both orientations
T17 chain: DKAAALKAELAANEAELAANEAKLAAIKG

[18] = molecular target: T18, APC3354-AA; test: two-hybrid library CCmax; settings: mean of both orientations
T18 chain: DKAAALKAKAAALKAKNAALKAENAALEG

[19] = molecular target: T19, APC8516-AA; test: two-hybrid library CCmax
T19 chain: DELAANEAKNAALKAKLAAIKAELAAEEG

[20] = molecular target: T20, APC2556-AA; test: two-hybrid library CCmax; settings: mean of both orientations
T20 chain: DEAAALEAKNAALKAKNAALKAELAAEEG

[21] = molecular target: T21, APC2474-AA; test: two-hybrid library CCmax
T21 chain: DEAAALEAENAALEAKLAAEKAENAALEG

[22] = molecular target: T22, APC222-AA; test: two-hybrid library CCmax
T22 chain: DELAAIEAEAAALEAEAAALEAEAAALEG

[23] = molecular target: T23, APC4100-AA; test: two-hybrid library CCmax; settings: mean of both orientations
T23 chain: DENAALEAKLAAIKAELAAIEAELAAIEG

[24] = molecular target: T24, APC2724-AA; test: two-hybrid library CCmax; settings: mean of both orientations
T24 chain: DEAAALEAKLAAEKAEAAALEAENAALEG

[25] = molecular target: T25, APC3265-AA; test: two-hybrid library CCmax; settings: mean of both orientations
T25 chain: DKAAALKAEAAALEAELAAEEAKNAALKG

[26] = molecular target: T26, APC2981-AA; test: two-hybrid library CCmax; settings: mean of both orientations
T26 chain: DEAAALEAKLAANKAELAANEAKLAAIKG

[27] = molecular target: T27, 4H2745-bN; test: two-hybrid library CCNG1
T27 chain: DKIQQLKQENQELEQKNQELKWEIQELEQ

[28] = molecular target: T28, 4H850-bA; test: two-hybrid library CCNG1
T28 chain: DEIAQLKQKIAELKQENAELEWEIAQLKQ

[29] = molecular target: T29, 4H3961-bN; test: two-hybrid library CCNG1
T29 chain: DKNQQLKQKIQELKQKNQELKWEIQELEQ

[30] = molecular target: T30, 4H470-bN; test: two-hybrid library CCNG1
T30 chain: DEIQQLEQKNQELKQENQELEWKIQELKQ

[31] = molecular target: T31, 4H363-bN; test: two-hybrid library CCNG1
T31 chain: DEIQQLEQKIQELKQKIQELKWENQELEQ

[32] = molecular target: T32, 4H344-bN; test: two-hybrid library CCNG1
T32 chain: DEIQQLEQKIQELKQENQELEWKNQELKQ

[33] = molecular target: T33, 4H3907-bN; test: two-hybrid library CCNG1
T33 chain: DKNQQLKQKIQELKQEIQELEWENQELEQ

interaction score [1]: -1.59
interaction score [2]: -1.82
interaction score [3]: -1.68
interaction score [4]: -0.292
interaction score [5]: -1.8
interaction score [6]: -1.62
interaction score [7]: -1.23
interaction score [8]: -1.91
interaction score [9]: -2.08
interaction score [10]: -1.71
interaction score [11]: -2.39
interaction score [12]: -1.74
interaction score [13]: -1.69
interaction score [14]: -1.82
interaction score [15]: -1.53
interaction score [16]: -1.94
interaction score [17]: -1.61
interaction score [18]: -1.41
interaction score [19]: -1.79
interaction score [20]: -2.32
interaction score [21]: -1.83
interaction score [22]: -2.62
interaction score [23]: -1.75
interaction score [24]: -2.15
interaction score [25]: -1.62
interaction score [26]: -1.93
Binder: DELAAIEAEAAALEAEAAALEAEAAALEG [APC222-AA]

interaction score [27]: -0.754
interaction score [28]: -0.544
interaction score [29]: -0.46
interaction score [30]: 1.07
interaction score [31]: -0.693
interaction score [32]: -0.786
interaction score [33]: -1.56
Binder: DKIQQLKQENQELEQKNQELKWEIQELEQ [4H2745-bN]

From publication PMC10397247
